The supplement of paper PMC7877785
± gives the uncertainty stated by the source.

Assay: self-splicing fitness, log relative to wild type (ln ratio); higher = more splicing; Tetrahymena group I intron in knt gene, E. coli kanamycin selection, DiMSum; sequences stand for … in CUCUCU…GGAGGGAAAAGUUAUCAGGCAUGCACCUGGUAGCUAGUCUUUAAACCAAUAGAUUGCAUCGGUUUAAAAGGCAAGACCGUCAAAUUGCGGGAAAGGGGUCAACAGCCGUUCAGUACCAAGUCUCAGGGGAAACUUUGAGAUGGCCUUGCAAAGGGUAUGGUAAUAAGCUGACGGACAUGGUCCUAACCACGCAGCCAAGUCCUAAGUCAACAGAUCUUCUGUUGAUAUGGAUGCAGUUCACAGACUAAAUGUCGGUCGGGGAAGAUGUAUUCUUCUCAUAAGAUAUAGUCGGACCUCUCCUUAAUGGGAGCUAGCGGAUGAAGUGAUGCAACACUGGAGCCGCUGGGAACUAAUUUGUAUGCGAAAGUAUAUUGAUUAGUUUUGGAGUACUCGUGGUCG
Procedure, shortened: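 The eight P1ex-region nucleotides of an intron in the knt kanamycin-resistance gene on pET-22b(+) were all randomised and the library put into E. coli BL21(DE3). Six replicate transformations were grown overnight at 37°C or 30°C on LB agar with or without 25 μg/mL kanamycin, together with 100 μg/mL carbenicillin, 50 μM IPTG and 0.2% rhamnose. Colonies were pooled and amplicon-sequenced on an Illumina HiSeq 2500. Fitness from DiMSum is the error-weighted combination of wild-type-normalised replicate fold changes, kanamycin over none.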

Sequence	self-splicing fitness (ln) (30 °C)	self-splicing fitness (ln) (37 °C)
GUACAGCAAUAUUACGAAUC	-2.65 ± 0.35	-1.18 ± 0.18
GUACAGCAAUAUUACGACCG	-2.47 ± 0.19	-0.419 ± 0.14
GUACAGCAAUAUUACGAGUG	-3.17 ± 0.34	-1.25 ± 0.18
GUACAGCAAUAUUACGAUGC	-1.03 ± 0.12	-1.06 ± 0.12
GUACAGCAAUAUUACGCAGU	-4.74 ± 0.31	-3 ± 0.24
GUACAGCAAUAUUACGCCCC	-1.32 ± 0.2	-0.26 ± 0.32
GUACAGCAAUAUUACGCCGG	-3.87 ± 0.39	-2.45 ± 0.24
GUACAGCAAUAUUACGCCGU	-2.95 ± 0.21	-1.06 ± 0.16
GUACAGCAAUAUUACGCGCA	-1.07 ± 0.11	-0.616 ± 0.12
GUACAGCAAUAUUACGCGGC	-1.83 ± 0.34	-2.11 ± 0.36
GUACAGCAAUAUUACGCUUU	-2.99 ± 0.12	-1.19 ± 0.12
GUACAGCAAUAUUACGGCAC	-0.68 ± 0.11	0.0875 ± 0.12
GUACAGCAAUAUUACGGCAG	-4.02 ± 0.2	-2.33 ± 0.17
GUACAGCAAUAUUACGGCUG	-3.82 ± 0.21	-1.38 ± 0.14
GUACAGCAAUAUUACGGUGC	-3.12 ± 0.15	-2.22 ± 0.18
GUACAGCAAUAUUACGGUUA	-0.862 ± 0.058	-0.00855 ± 0.057
GUACAGCAAUAUUACGUACU	-2.77 ± 0.14	-2.79 ± 0.25
GUACAGCAAUAUUACGUAGC	-0.896 ± 0.19	-2.29 ± 0.25
GUACAGCAAUAUUACGUAUC	-2.87 ± 0.16	-1.35 ± 0.28
GUACAGCAAUAUUACGUCCA	-2.12 ± 0.13	-1.23 ± 0.14
GUACAGCAAUAUUACGUCGA	-2.07 ± 0.11	-1.78 ± 0.12
GUACAGCAAUAUUACGUGAA	-3.94 ± 0.13	-1.51 ± 0.11
GUACAGCAAUAUUACGUUAC	-3.89 ± 0.36	-2.27 ± 0.28
GUAGAGCAAUAUUACGAAAC	0.2 ± 0.34	-0.546 ± 0.32
GUAGAGCAAUAUUACGAAGG	-1.87 ± 0.31	–

Sequence	self-splicing fitness (ln) (30 °C)	self-splicing fitness (ln) (37 °C)
GUAGAGCAAUAUUACGACCG	-1.28 ± 0.2	-1.98 ± 0.46
GUAGAGCAAUAUUACGACGA	-1.85 ± 0.15	-0.21 ± 0.16
GUAGAGCAAUAUUACGAGGA	-2.61 ± 0.26	–
GUAGAGCAAUAUUACGAGGG	-3.25 ± 0.27	-2.38 ± 0.37
GUAGAGCAAUAUUACGAUUA	-0.625 ± 0.1	-0.396 ± 0.14
GUAGAGCAAUAUUACGCACC	-2.47 ± 0.28	-0.709 ± 0.2
GUAGAGCAAUAUUACGCACG	-0.718 ± 0.24	-1.99 ± 0.27
GUAGAGCAAUAUUACGCUCA	-0.751 ± 0.1	-0.0338 ± 0.16
GUAGAGCAAUAUUACGCUCC	-1.72 ± 0.36	–
GUAGAGCAAUAUUACGCUUA	-0.468 ± 0.087	-0.371 ± 0.1
GUAGAGCAAUAUUACGCUUG	-0.837 ± 0.12	-0.536 ± 0.19
GUAGAGCAAUAUUACGGAGU	-2.27 ± 0.23	-1.61 ± 0.18
GUAGAGCAAUAUUACGGCGU	-0.532 ± 0.077	0.0227 ± 0.088
GUAGAGCAAUAUUACGUACA	-0.971 ± 0.11	-1.12 ± 0.17
GUAGAGCAAUAUUACGUCAC	-1.65 ± 0.1	-1.06 ± 0.12
GUAGAGCAAUAUUACGUCCC	-1.01 ± 0.37	0.144 ± 0.41
GUAGAGCAAUAUUACGUCCU	-1.1 ± 0.2	-0.4 ± 0.22
GUAGAGCAAUAUUACGUUAG	-2.43 ± 0.12	-0.99 ± 0.19
GUAGAGCAAUAUUACGUUAU	-1.68 ± 0.086	-0.698 ± 0.091
GUAUAGCAAUAUUACGACAG	-2.58 ± 0.19	-1.9 ± 0.25
GUAUAGCAAUAUUACGAUUC	0.127 ± 0.1	0.598 ± 0.13
GUAUAGCAAUAUUACGCAGC	-2.32 ± 0.37	-1.25 ± 0.33
GUAUAGCAAUAUUACGCCCA	-1.33 ± 0.15	-0.76 ± 0.17
GUAUAGCAAUAUUACGCGGG	-3.7 ± 0.27	-2.23 ± 0.26
GUAUAGCAAUAUUACGCGGU	–	-2.53 ± 0.44

Sequence	self-splicing fitness (ln) (30 °C)	self-splicing fitness (ln) (37 °C)
GUAUAGCAAUAUUACGCUGA	-1.91 ± 0.2	-1.81 ± 0.17
GUAUAGCAAUAUUACGCUGC	-2.6 ± 0.48	-0.913 ± 0.3
GUAUAGCAAUAUUACGGAAA	-2.1 ± 0.43	-2.81 ± 0.32
GUAUAGCAAUAUUACGGACG	-2.73 ± 0.41	-1.3 ± 0.33
GUAUAGCAAUAUUACGGAGG	-2.94 ± 0.23	-3.14 ± 0.4
GUAUAGCAAUAUUACGGCAG	-4.25 ± 0.42	-1.5 ± 0.25
GUAUAGCAAUAUUACGGCCA	-0.388 ± 0.23	0.0249 ± 0.18
GUAUAGCAAUAUUACGGGUG	-3.76 ± 0.16	-2.86 ± 0.22
GUAUAGCAAUAUUACGUAGC	-3.22 ± 0.19	-1.46 ± 0.14
GUAUAGCAAUAUUACGUCGA	-2.2 ± 0.29	-1.03 ± 0.2
GUAUAGCAAUAUUACGUCGG	-3.48 ± 0.26	-1.31 ± 0.22
GUAUAGCAAUAUUACGUCUG	-3.17 ± 0.17	-1.08 ± 0.14
GUAUAGCAAUAUUACGUUAC	-3.43 ± 0.41	–
GUAUAGCAAUAUUACGUUCU	-2.27 ± 0.13	-0.863 ± 0.13
GUCAAGCAAUAUUACGAAUC	-2.16 ± 0.11	-0.596 ± 0.12
GUCAAGCAAUAUUACGAAUG	-4.11 ± 0.22	-1.18 ± 0.1
GUCAAGCAAUAUUACGACAA	-3.81 ± 0.4	-2.58 ± 0.27
GUCAAGCAAUAUUACGACAC	-0.691 ± 0.12	-0.114 ± 0.14
GUCAAGCAAUAUUACGACGA	-3.52 ± 0.29	-1.88 ± 0.18
GUCAAGCAAUAUUACGACUC	-1.73 ± 0.15	-0.881 ± 0.15
GUCAAGCAAUAUUACGACUU	-3.18 ± 0.099	-1.86 ± 0.1
GUCAAGCAAUAUUACGAGGG	-4.08 ± 0.42	-3.38 ± 0.3
GUCAAGCAAUAUUACGAUCC	-1.48 ± 0.18	-0.693 ± 0.21
GUCAAGCAAUAUUACGAUUA	-1.04 ± 0.1	-0.259 ± 0.068
GUCAAGCAAUAUUACGCACC	–	-0.99 ± 0.47

Sequence	self-splicing fitness (ln) (30 °C)	self-splicing fitness (ln) (37 °C)
GUCAAGCAAUAUUACGCAGC	–	-3.49 ± 0.35
GUCAAGCAAUAUUACGCCAG	-4.54 ± 0.28	-3.95 ± 0.33
GUCAAGCAAUAUUACGCCUA	-0.294 ± 0.12	0.0798 ± 0.093
GUCAAGCAAUAUUACGCUGG	-4.08 ± 0.28	-3.72 ± 0.29
GUCAAGCAAUAUUACGCUUG	-4.27 ± 0.36	-2.06 ± 0.23
GUCAAGCAAUAUUACGGAAA	-2.28 ± 0.14	-1.72 ± 0.12
GUCAAGCAAUAUUACGGCAG	–	-2.86 ± 0.29
GUCAAGCAAUAUUACGGGAG	-3.23 ± 0.1	-1.07 ± 0.081
GUCAAGCAAUAUUACGGUCG	-3.23 ± 0.14	-1.26 ± 0.13
GUCAAGCAAUAUUACGUACA	-3.13 ± 0.14	-1.73 ± 0.098
GUCAAGCAAUAUUACGUCGA	-3.6 ± 0.42	-4.19 ± 0.46
GUCAAGCAAUAUUACGUCUA	-1.94 ± 0.1	-0.679 ± 0.079
GUCAAGCAAUAUUACGUGCA	-1.58 ± 0.11	-0.243 ± 0.1
GUCAAGCAAUAUUACGUUAC	-3.02 ± 0.17	-2.96 ± 0.17
GUCAAGCAAUAUUACGUUGG	-4.53 ± 0.31	-3.51 ± 0.3
GUCAAGCAAUAUUACGUUGU	-3.69 ± 0.13	-2.76 ± 0.13
GUCAAGCAAUAUUACGUUUU	-2.8 ± 0.11	-0.976 ± 0.1
GUCCAGCAAUAUUACGAAAG	-3.37 ± 0.21	-0.318 ± 0.17
GUCCAGCAAUAUUACGAAAU	-0.587 ± 0.1	-0.0182 ± 0.12
GUCCAGCAAUAUUACGAAGU	-0.504 ± 0.074	0.0552 ± 0.11
GUCCAGCAAUAUUACGACUC	-0.116 ± 0.087	-0.335 ± 0.1
GUCCAGCAAUAUUACGAGAU	-2.92 ± 0.13	-1.32 ± 0.11
